The text below walks through data of patent US20240272170A1 (QUANTUM SI, published 2024).

A word on the Kd: it is the constant that tells how readily two partners part at equilibrium.

The target of one experiment is T1, AA peptide.
T1 construct: The peptide was coated on the Octet sensor; also called peptide with N-terminal alanine and penultimate alanine
Kind of experiment: BLI (Octet), peptide on sensor, purified protein in solution. An excerpt: (§1) In the high-throughput assay, Octet sensors are coated with the peptide of interest and dipped in buffer containing the purified protein. An approximation of relative binding can be obtained by comparing the response after 200 seconds for each protein. Each protein has approximately the same molecular mass and is used at the same concentration, so ranking the proteins by response level in this assay gives an approximation of which proteins have improved binding. Studying the on and off-rate can also give insight into the mechanism of binding.
In general terms: BLI is a label-free optical method that tracks binding on a fibre tip over time.

The target in a further experiment is T2, VA peptide.
T2 construct: The peptide was coated on the Octet sensor; also called peptide with N-terminal valine and penultimate alanine
The experiment is described as above.
From the text: as §1

The target of another experiment is T3, LA peptide.
T3 construct: The peptide was coated on the Octet sensor; also called peptide with N-terminal leucine and penultimate alanine
Described as above.
From the text: as §1

For experiment [1], the target named is T4, AA Peptide (fluorescence polarization), AAKLDEESILKQ{LYS(FITC)}.
T4 peptide: AAKLDEESILKQK(FITC)
Kind of experiment: fluorescence polarization, FITC peptide titrated with protein. (In fluorescence polarisation assays a small probe gives low polarisation when free and higher when bound to something large.)

The target in experiment [2] is T5, MA Peptide (fluorescence polarization).
T5 peptide: MAKLDEESILKQK(FITC)
The description is as above.

The target in experiment [3] is T6, RA peptide (XAKLDEESILKQK-FITC, X = R).
T6 construct: also called peptide with N-terminal arginine
T6 peptide: RAKLDEESILKQK(FITC)
Kind of experiment: fluorescence polarization titration, 20 C. Here is the method: (§2) Binding affinity was measured by polarization using a labeled peptide. The polarization response and total intensity measurements were carried out at 20° C. on a microplate fluorometer with 480 nm excitation and 530 nm emission. […] Multiple analyses were performed at increasing recognizer concentration at a fixed concentration of a target peptide to obtain a titration curve. An equilibrium polarization response at each concentration was plotted and fit to calculate the KD.
(§3) Fluorescence polarization assays were performed with all candidates, and single point binding responses were measured at a fixed concentration of the binders (FIG. 13A). […] We carried out multiple polarization binding titration analysis at increasing concentration of binder protein, and the Kds were determined from the titration curves (FIG. 13B).

Experiment [4] addresses T7, HA peptide (XAKLDEESILKQK-FITC, X = H).
T7 construct: also called peptide with N-terminal histidine
T7 peptide: HAKLDEESILKQK(FITC)
The experiment is described as follows: fluorescence polarization titration, 20 C. Here is the method: as §2, §3

Experiment [5] deals with T8, KA peptide (Octet assay of PS621 variants).
T8 construct: XAKLDEESILKQK with X = K
T8 peptide: KAKLDEESILKQK
Kind of experiment: Octet (BLI), 30 C.

Experiment [6] addresses T9, HA peptide (Octet assay of PS621 variants).
T9 construct: XAKLDEESILKQK with X = H
T9 peptide: HAKLDEESILKQK
The experiment is described as follows: Octet (BLI), 30 C.

For experiment [7], the target named is T10, RL peptide (Octet assay of PS621 variants).
T10 construct: RXKLDEESILKQK with X = L
T10 peptide: RLKLDEESILKQK
The experiment is described as follows: Octet (BLI), 30 C. The source says:
(§4) Peptides of the sequence RXKLDEESILKQK (SEQ ID NO: 1076) were also used to evaluate the penultimate residue effect.

In experiment [8] the target is T11, RS peptide (Octet assay of PS621 variants).
T11 construct: RXKLDEESILKQK with X = S
T11 peptide: RSKLDEESILKQK
Kind of experiment: Octet (BLI), 30 C.
From the text: as §4

Experiment [9] concerns the target T12, RQ peptide (Octet assay of PS621 variants).
T12 construct: RX… with X = Q
Kind of experiment: Octet (BLI), 30 C.
From the text: as §4

The target in experiment [10] is T13, RF peptide (Octet assay of PS621 variants).
T13 construct: RX… with X = F
Kind of experiment: Octet (BLI), 30 C.
From the text: as §4

The target in experiment [11] is T14, RR peptide (Octet assay of PS621 variants).
T14 construct: RX… with X = R
The experiment is described as follows: Octet (BLI), 30 C.
From the text: as §4

Experiment [12] has as its target T15, RE peptide (Octet assay of PS621 variants).
T15 construct: RXKLDEESILKQK with X = E
T15 peptide: REKLDEESILKQK
The experiment is described as follows: Octet (BLI), 30 C.
From the text: as §4

Experiment [13] addresses T16, RA peptide (Octet assay of PS621 variants).
T16 construct: X… with X = R
Kind of experiment: Octet (BLI), 30 C.
From the text: as §4

No end group written: not given here. *: point of attachment. FITC = O=C1OC2(c3ccc(O)cc3Oc3cc(O)ccc32)c2ccc(NC(=S)*)cc21

B1: PS809 (designed binder)
chain: MPTAASATESAIEDTPAPARPEVDGRTKPKRQPRYHVVLWNDDDHTYQYVVVMLQSLFGHPPERGYRLAKEMDTQGRVIVLTTTREHAELKRDQIHAFGYDRLLARSKGSMKASIEAEE
notes: Variant of PS557; also called V72M
As to B1, the entries for the “Octet response after 200 sec association” value in the experiment with AA peptide, with VA peptide and in the experiment with LA peptide were 0.0226 nm, 7.77 nm and 10.8 nm, respectively.

B2: PS830 (designed binder)
chain: MPTAASATESAIEDTPAPARPEVDGRTKPKRQPRYHVVLWDDDDHTYQYVVVMLQSLFGHPRKRGYRLAKEMDTLGRVIVLTTTREHAELKRDQIHAFGYDRLLARSKGSMKASIEAEE
notes: Variant of PS557
Consider B2, for which the “Octet response after 200 sec association” value in the experiment with AA peptide is 0.215 nm; with VA peptide, 6.64 nm; with LA peptide, 8.54 nm.

B3: PS819 (designed binder)
chain: MPTAASATESAIEDTPAPARPEVDGRTKPKRQPRYHVVLWDDDDHTYQYVVVMLQSLFGHPPKRGYRLAKEMDTQGRVIVLTTTREHAELKRDQIHAFGYDRLLARSKGSMKASIEAEE
notes: Variant of PS557; also called V72M, N41D, E63K
B3: the “Octet response after 200 sec association” value with AA peptide stood at 0.519 nm; in the experiment with VA peptide it was 7.42 nm; in the experiment with LA peptide, 11.1 nm.

B4: PS828 (designed binder)
chain: MPTAASATESAIEDTPAPARPEVDGRTKPKRQPRYHVVLWDDDDHTYQYVVVMLQSLFGHPRERGYRLAKEVDTLGRVIVLTTTREHAELKRDQIHAFGYDRLLARSKGSMKASIEAEE
notes: Variant of PS557
Turning to B4, the “Octet response after 200 sec association” value came out at 0.469 nm with AA peptide, 3.24 nm with VA peptide and 7.75 nm with LA peptide.

B5: PS847 (designed binder)
chain: MPTAASATESAIEDTPAPARPEVDGRTKPKRQPRYHVVLWDDDDHTYQYVVVMLRSLFGHPPERGYRLAKEMDTQGRVIVLTTTREHAELKRDQIHAFGYDRLLARSKGSMKASIEAEE
notes: Variant of PS557
On to B5, for which the “Octet response after 200 sec association” value with AA peptide amounted to 0.288 nm; in the experiment with VA peptide, 6.68 nm; with LA peptide, 9.92 nm.

B6: PS934 (designed binder)
chain: MPTAASATESAIEDTPAPARPEVDGRTKPKRQPRYHVVLWDDDDHTYQYVVVMLQSLFGHPRERGYRMAKEMDTQGRVIVLTTTREHAELKRDQIHAFGYDRLLARSKGSMKASIEAEE
notes: Variant of PS557; also called N41D, V72M, L68M, P62R
On to B6, for which the Kd in experiment [1] was 5330 nM; in experiment [2] it was 325 nM.

B7: PS968 (designed binder)
chain: MPTAASATESAIEDTPAPARPEVDGRTKPKRQPRYHVVLWNDDDHTYQYVVVMLRSLFGHPPERGYRLAKEMDTQGRVIVLTTTREHAELKRDQIHAFGRDRLLARSKGSMKASIEAEE
notes: Variant of PS557; also called V72M, Q55R, Y100R
As for B7, the Kd in [1] came out at 5440 nM; in experiment [2], 395 nM.

B8: PS1104 (designed binder)
chain: MHSKFSHAGRICGAKFKVGEPIYRCKECSFDDTCVLCVNCFNPKDHRGHHVYTTICTEFNNGICDCGDKEAWNHTLFCKAEEG
notes: PS621 variant
For the molecule B8, the values for the Kd in experiment [3] and in [4] were 260 nM and 2850 nM, respectively.

B9: PS1104 (designed binder)
chain: MHSKFSHAGRICGAKFKVGEPIYRCKECSFDDTCVLCVNCFNPKDHRGHHVYTTICTEFNNGICDCGDKEAWNHTLFCKAEEG
notes: Variant of PS621
Consider B9, for which the Octet response was 7.3 in [5]; 3.4 in experiment [6]; 11.3 in experiment [7]; 8.9 in experiment [8]; 9.7 in experiment [9]; 10.5 in [10]. The Octet response in [11] came to 8; in experiment [12], 7.6; in [13], 9.4.

B10: PS1115 (designed binder)
chain: MHSKFSHAGRICGAKFKVGEPIYRCKECSFDDTCVLCVNCFNPKDHRGHHVYTTICTERNNGICDCGDKEAWNHELFCKAEEG
notes: PS621 variant
For the molecule B10, the dissociation constant (Kd) in [3] came out at 152 nM; in experiment [4] it was 1920 nM.

B11: PS1118 (designed binder)
chain: MHSKFSHAGRICGAKFKVGEPIYRCKECSFDDTCVLCVNCFNPKDHTGHHVYTTICTKFNNGICDCGDKEAWNHTLFCKAEEG
notes: Variant of PS621
As to B11, the Octet response in [5] turned out to be 5; in experiment [6], 1.8; in experiment [7], 10.6; in [13], 9.8. The Kd stood at 271 nM in experiment [3] and 6180 nM in experiment [4].

B12: PS1121 (designed binder)
chain: MHSKFSHAGRICGAKFKVGEPIYRCKECSFDDTCVLCVNCFNPKDHKGHHVYTTICTEFNNGICDCGDKEAWNHTLFCKAEEG
notes: PS621 variant
For the molecule B12, the results for the Kd in [3] and in experiment [4] were 259 nM and 3500 nM, respectively.

B13: PS1114 (designed binder)
chain: MHSKFSHAGRICGAKFKVGEPIYRCKECSFDDTCVLCVNCFNPKDHRGHHVYTTICTERNNGICDCGDKEAWNHTLFCKAEEG
notes: PS621 variant
With B13, the dissociation constant (Kd) in experiment [3] stood at 180 nM; in experiment [4] it was 2660 nM.

B14: PS1103 (designed binder)
chain: MHSKFSHAGRICGAKFKVGEPIYRCKECSFDYTCVLCVNCFNPKDHTGHHVYTTICTEFNNGICDCGDKEAWNHTLFCKAEEG
notes: Variant of PS621
As to B14, the figures for the Octet response in experiment [5], in experiment [7] and in experiment [13] were 2.9, 8.4 and 6.2, respectively. In experiment [3], the Kd is 787 nM.

B15: PS1107 (designed binder)
chain: MHSKFSHAGRICGAKFKVGEPIYRCKECSFDDTCVLCVNCFNPKDHTGHHVYTTICREFNNGICDCGDKEAWNHTLFCKAEEG
notes: Variant of PS621
Regarding B15, the Octet response was found to be 3.9 in experiment [5], 0.6 in experiment [6], 8.1 in [7] and 7.8 in [13]. The Kd in experiment [3] turned out to be 298 nM; in [4], 3830 nM.

B16: PS1106 (designed binder)
chain: MHSKFSHAGRICGAKFKVGEPIYRCKECSFDDTCVLCVNCFNPKDHTGHHVYVTICTEFNNGICDCGDKEAWNHTLFCKAEEG
notes: PS621 variant
Consider B16, for which the dissociation constant Kd came to 165 nM in [3] and 3440 nM in experiment [4].

B17: PS1105 (designed binder)
chain: MHSKFSHAGRICGAKFKVGEPIYRCKECSFDDTCVLCVNCFNPKDHTRHHVYTTICTEFNNGICDCGDKEAWNHTLFCKAEEG
notes: Variant of PS621
For the molecule B17, the Octet response in experiment [5] is 2.6; in experiment [6], 0.2; in [7] it was 7.5; in experiment [8], 5.5; in experiment [9], 5.9; in experiment [10] it was 7.2. Further, the Octet response in [11] turned out to be 4.4; in [12], 2.9; in experiment [13], 6.5.

B18: PS1119 (designed binder)
chain: MHSKFSHAGRICGAKFKVGEPIYRCKECSFDDTCVLCVNCFNPKDHTGHHVYTTICKEFNNGICDCGDKEAWNHTLFCKAEEG
notes: Variant of PS621
Regarding B18, the Octet response in experiment [5] was determined as 3.3; in experiment [6], 0.7; in experiment [7], 9.6; in [13], 8.6. The Kd in experiment [3] was determined as 289 nM; in experiment [4], 11400 nM.
